{"source": "patent US20060140929A1", "about": "(Merck KGaA, published 2006)", "binders": {"B1": {"name": "hirudin mutein M 2 (I29R L30H) (other)", "chain": "VVYTDCTESGQNLCLCEGSVVCGQGNKCRHGSDGEKNQCVTGEGTPKPESHNDGDFEEIPEEYLQ"}, "B2": {"name": "hirudin mutein M 43 (V21G) (other)", "chain": "B1 chain with V21G, R29I, H30L"}, "B3": {"name": "hirudin mutein M 25 (I29R L30R) (other)", "chain": "B1 chain with H30R"}, "B4": {"name": "hirudin mutein M 42 (V21A) (other)", "chain": "B1 chain with V21A, R29I, H30L"}, "B5": {"name": "hirudin mutein M 11 (I29R L30R V40T) (other)", "chain": "B1 chain with H30R, V40T"}, "B6": {"name": "hirudin mutein M 27 (I29S L30A) (other)", "chain": "B1 chain with R29S, H30A"}, "B7": {"name": "hirudin mutein M 28 (I29S L30K) (other)", "chain": "B1 chain with R29S, H30K"}, "B8": {"name": "hirudin mutein M 32 (I29T L30A) (other)", "chain": "B1 chain with R29T, H30A"}, "B9": {"name": "hirudin mutein M 31 (I29S L30T) (other)", "chain": "B1 chain with R29S, H30T"}, "B10": {"name": "hirudin mutein M 34 (I29T L30Q) (other)", "chain": "B1 chain with R29T, H30Q"}, "B11": {"name": "hirudin mutein M 44 (V21H) (other)", "chain": "B1 chain with V21H, R29I, H30L"}, "B12": {"name": "hirudin mutein M 33 (I29T L30K) (other)", "chain": "B1 chain with R29T, H30K"}, "B13": {"name": "hirudin mutein M 30 (I29S L30R) (other)", "chain": "B1 chain with R29S, H30R"}, "B14": {"name": "hirudin mutein M 24 (I29R L30Q) (other)", "chain": "B1 chain with H30Q"}, "B15": {"name": "hirudin mutein M 29 (I29S L30Q) (other)", "chain": "B1 chain with R29S, H30Q"}, "B16": {"name": "hirudin mutein M 23 (I29R L30K) (other)", "chain": "B1 chain with H30K"}, "B17": {"name": "hirudin mutein M 36 (I29T L30T) (other)", "chain": "B1 chain with R29T, H30T"}, "B18": {"name": "hirudin mutein M 45 (V21K) (other)", "chain": "B1 chain with V21K, R29I, H30L"}, "B19": {"name": "hirudin mutein M 35 (I29T L30R) (other)", "chain": "B1 chain with R29T, H30R"}, "B20": {"name": "hirudin mutein M 26 (I29R L30T) (other)", "chain": "B1 chain with H30T"}}, "note": "Residue numbers refer to the chain shown, from its start. In names and notes the source's numbering stands."}
{"target": "thrombin", "assay": "cell-based or functional assay", "units": {"Relative Activity (ratio of variant IC50/WT IC50), chromogenic thrombin inhibition assay": "ratio"}}
{"binder": "B1", "Relative Activity (ratio of variant IC50/WT IC50), chromogenic thrombin inhibition assay": 1.2}
{"binder": "B2", "Relative Activity (ratio of variant IC50/WT IC50), chromogenic thrombin inhibition assay": 1}
{"binder": "B3", "Relative Activity (ratio of variant IC50/WT IC50), chromogenic thrombin inhibition assay": 1}
{"binder": "B4", "Relative Activity (ratio of variant IC50/WT IC50), chromogenic thrombin inhibition assay": 0.93}
{"binder": "B5", "Relative Activity (ratio of variant IC50/WT IC50), chromogenic thrombin inhibition assay": 0.7}
{"binder": "B6", "Relative Activity (ratio of variant IC50/WT IC50), chromogenic thrombin inhibition assay": 1.34}
{"binder": "B7", "Relative Activity (ratio of variant IC50/WT IC50), chromogenic thrombin inhibition assay": 1.5}
{"binder": "B8", "Relative Activity (ratio of variant IC50/WT IC50), chromogenic thrombin inhibition assay": 1.67}
{"binder": "B9", "Relative Activity (ratio of variant IC50/WT IC50), chromogenic thrombin inhibition assay": 1.1}
{"binder": "B10", "Relative Activity (ratio of variant IC50/WT IC50), chromogenic thrombin inhibition assay": 2.4}
{"binder": "B11", "Relative Activity (ratio of variant IC50/WT IC50), chromogenic thrombin inhibition assay": 0.74}
{"binder": "B12", "Relative Activity (ratio of variant IC50/WT IC50), chromogenic thrombin inhibition assay": 1.6}
{"binder": "B13", "Relative Activity (ratio of variant IC50/WT IC50), chromogenic thrombin inhibition assay": 2.5}
{"binder": "B14", "Relative Activity (ratio of variant IC50/WT IC50), chromogenic thrombin inhibition assay": 1}
{"binder": "B15", "Relative Activity (ratio of variant IC50/WT IC50), chromogenic thrombin inhibition assay": 2}
{"binder": "B16", "Relative Activity (ratio of variant IC50/WT IC50), chromogenic thrombin inhibition assay": 0.93}
{"binder": "B17", "Relative Activity (ratio of variant IC50/WT IC50), chromogenic thrombin inhibition assay": 1.8}
{"binder": "B18", "Relative Activity (ratio of variant IC50/WT IC50), chromogenic thrombin inhibition assay": 0.9}
{"binder": "B19", "Relative Activity (ratio of variant IC50/WT IC50), chromogenic thrombin inhibition assay": 2.3}
{"binder": "B20", "Relative Activity (ratio of variant IC50/WT IC50), chromogenic thrombin inhibition assay": 1}
